For 25 molecules, relative binding activity and Kd results are on record in patent US20200199241A1 (Chugai, published 2020).

The chains are these.
T1: human FcγRIIa(R) (human, UniProt P12318 36-217)
T1 construct: also called FcgRIIaR; FcγRIIa type R
T1 chain: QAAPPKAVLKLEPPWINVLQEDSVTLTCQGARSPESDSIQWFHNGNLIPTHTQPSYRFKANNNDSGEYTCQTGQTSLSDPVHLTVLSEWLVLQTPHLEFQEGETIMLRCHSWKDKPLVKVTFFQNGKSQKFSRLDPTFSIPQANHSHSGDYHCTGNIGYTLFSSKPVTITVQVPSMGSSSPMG

T2: human FcγRIIa(H) (human, UniProt P12318 36-217)
T2 construct: also called FcgRIIaH; FcγRIIa type H
T2 sequence: T1 chain with R133H

T3: human FcγRIIb (human, UniProt P31994 43-217, limits assumed)
T3 construct: also called FcgRIIb
T3 sequence: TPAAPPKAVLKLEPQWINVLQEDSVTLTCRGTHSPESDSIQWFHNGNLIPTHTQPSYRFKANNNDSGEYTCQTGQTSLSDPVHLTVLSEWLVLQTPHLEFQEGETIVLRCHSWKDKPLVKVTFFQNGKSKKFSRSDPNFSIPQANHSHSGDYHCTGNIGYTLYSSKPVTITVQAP

B1: GpH7-B3 variant E269K/GpL16-k0 (antibody, human IgG1)
heavy: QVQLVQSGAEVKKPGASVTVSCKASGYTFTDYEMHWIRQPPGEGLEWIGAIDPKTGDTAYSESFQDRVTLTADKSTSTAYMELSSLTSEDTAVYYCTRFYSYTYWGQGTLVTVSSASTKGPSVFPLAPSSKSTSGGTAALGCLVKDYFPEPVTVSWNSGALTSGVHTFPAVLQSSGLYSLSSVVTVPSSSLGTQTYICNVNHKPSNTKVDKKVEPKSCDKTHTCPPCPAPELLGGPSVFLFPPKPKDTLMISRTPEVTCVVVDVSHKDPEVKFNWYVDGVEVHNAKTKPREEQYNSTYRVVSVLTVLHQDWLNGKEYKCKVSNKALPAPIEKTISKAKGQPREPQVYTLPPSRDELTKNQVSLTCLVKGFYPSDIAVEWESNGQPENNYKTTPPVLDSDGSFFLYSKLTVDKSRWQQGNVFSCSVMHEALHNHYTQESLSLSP
light: DIVMTQSPLSLPVTPGEPASISCQASESLVHSNRNTYLHWYLQKPGQSPQLLIYKVSNRFSGVPDRFSGSGSGTDFTLKISRVEAEDVGVYYCSQNTHVPPTFGQGTKVEIE
notes: copies: 2 + 2
B2: GpH7-B3 variant E269W/GpL16-k0 (antibody, human IgG1)
heavy: not shown
light: B1 light
notes: copies: 2 + 2
B3: GpH7-B3 variant D265K/GpL16-k0 (antibody, human IgG1)
heavy: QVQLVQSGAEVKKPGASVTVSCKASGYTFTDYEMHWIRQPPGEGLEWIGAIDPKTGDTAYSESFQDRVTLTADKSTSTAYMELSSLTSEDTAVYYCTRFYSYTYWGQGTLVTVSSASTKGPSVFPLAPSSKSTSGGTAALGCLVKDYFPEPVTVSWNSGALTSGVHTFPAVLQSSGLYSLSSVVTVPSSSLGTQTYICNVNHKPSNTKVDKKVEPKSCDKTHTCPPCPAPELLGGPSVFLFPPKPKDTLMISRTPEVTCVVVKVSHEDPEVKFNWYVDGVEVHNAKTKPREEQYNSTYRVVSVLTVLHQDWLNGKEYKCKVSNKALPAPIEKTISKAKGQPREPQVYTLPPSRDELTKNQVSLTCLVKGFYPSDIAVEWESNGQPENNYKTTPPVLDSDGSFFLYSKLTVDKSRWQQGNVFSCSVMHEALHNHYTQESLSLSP
light: B1 light
notes: copies: 2 + 2
B4: GpH7-B3 variant G237Y/GpL16-k0 (antibody, human IgG1)
heavy: not shown
light: B1 light
notes: copies: 2 + 2
B5: GpH7-B3 variant D265I/GpL16-k0 (antibody, human IgG1)
heavy: not shown
light: B1 light
notes: copies: 2 + 2
B6: GpH7-B3 variant L234G/GpL16-k0 (antibody, human IgG1)
heavy: not shown
light: B1 light
notes: copies: 2 + 2
B7: GpH7-B3 variant G236K/GpL16-k0 (antibody, human IgG1)
heavy: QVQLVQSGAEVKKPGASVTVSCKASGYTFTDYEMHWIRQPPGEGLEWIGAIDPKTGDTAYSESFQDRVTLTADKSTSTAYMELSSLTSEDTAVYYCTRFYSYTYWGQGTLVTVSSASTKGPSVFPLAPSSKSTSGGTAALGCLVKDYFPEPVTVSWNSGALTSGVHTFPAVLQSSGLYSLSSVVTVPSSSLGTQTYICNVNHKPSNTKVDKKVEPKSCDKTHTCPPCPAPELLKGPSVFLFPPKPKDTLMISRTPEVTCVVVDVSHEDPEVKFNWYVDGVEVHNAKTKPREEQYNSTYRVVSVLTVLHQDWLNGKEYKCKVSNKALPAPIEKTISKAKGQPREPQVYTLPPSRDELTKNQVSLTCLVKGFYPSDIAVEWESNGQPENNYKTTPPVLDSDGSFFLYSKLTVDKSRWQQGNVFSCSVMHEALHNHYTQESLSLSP
light: B1 light
notes: copies: 2 + 2
B8: GpH7-B3 variant D265F/GpL16-k0 (antibody, human IgG1)
heavy: not shown
light: B1 light
notes: copies: 2 + 2
B9: GpH7-B3 variant E269H/GpL16-k0 (antibody, human IgG1)
heavy: not shown
light: B1 light
notes: copies: 2 + 2
B10: GpH7-B3 variant D265G/GpL16-k0 (antibody, human IgG1)
heavy: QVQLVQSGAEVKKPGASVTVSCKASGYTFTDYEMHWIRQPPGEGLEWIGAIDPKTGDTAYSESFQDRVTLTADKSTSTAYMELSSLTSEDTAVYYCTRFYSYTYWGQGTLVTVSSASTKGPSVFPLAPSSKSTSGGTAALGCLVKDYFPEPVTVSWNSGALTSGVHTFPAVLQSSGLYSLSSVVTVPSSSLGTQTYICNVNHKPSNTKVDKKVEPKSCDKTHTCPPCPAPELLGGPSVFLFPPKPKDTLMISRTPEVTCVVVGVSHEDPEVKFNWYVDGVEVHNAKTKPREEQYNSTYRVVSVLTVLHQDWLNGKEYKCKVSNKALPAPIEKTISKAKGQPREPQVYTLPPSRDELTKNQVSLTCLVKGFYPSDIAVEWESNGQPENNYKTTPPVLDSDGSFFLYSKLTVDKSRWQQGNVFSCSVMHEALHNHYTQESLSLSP
light: B1 light
notes: copies: 2 + 2
B11: GpH7-B3 variant D265A/GpL16-k0 (antibody, human IgG1)
heavy: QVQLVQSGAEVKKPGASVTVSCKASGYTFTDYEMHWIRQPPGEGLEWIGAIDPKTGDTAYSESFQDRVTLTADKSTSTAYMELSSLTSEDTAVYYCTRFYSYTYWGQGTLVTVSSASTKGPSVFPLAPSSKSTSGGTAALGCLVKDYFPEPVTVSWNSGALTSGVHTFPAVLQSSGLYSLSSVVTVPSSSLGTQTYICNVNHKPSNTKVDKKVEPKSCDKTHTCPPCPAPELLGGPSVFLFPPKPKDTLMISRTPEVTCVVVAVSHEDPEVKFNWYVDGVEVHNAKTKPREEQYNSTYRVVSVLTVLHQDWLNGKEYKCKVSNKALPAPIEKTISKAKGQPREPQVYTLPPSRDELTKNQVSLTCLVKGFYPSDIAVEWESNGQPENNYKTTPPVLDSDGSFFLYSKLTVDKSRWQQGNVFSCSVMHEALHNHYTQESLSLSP
light: B1 light
notes: copies: 2 + 2
B12: GpH7-B3 variant D265L/GpL16-k0 (antibody, human IgG1)
heavy: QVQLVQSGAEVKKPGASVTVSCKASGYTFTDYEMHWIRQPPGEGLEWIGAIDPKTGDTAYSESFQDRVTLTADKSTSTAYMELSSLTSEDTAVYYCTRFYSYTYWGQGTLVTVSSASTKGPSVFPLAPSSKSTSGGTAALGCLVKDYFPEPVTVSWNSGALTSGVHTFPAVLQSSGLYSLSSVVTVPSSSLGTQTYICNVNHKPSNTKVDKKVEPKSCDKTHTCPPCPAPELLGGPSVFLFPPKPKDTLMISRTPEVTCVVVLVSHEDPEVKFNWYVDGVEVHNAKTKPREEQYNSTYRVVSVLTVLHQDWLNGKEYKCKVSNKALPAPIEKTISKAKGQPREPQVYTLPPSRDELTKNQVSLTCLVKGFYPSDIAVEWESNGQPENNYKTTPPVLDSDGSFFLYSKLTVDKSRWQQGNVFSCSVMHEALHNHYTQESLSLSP
light: B1 light
notes: copies: 2 + 2
B13: GpH7-B3 variant G237P/GpL16-k0 (antibody, human IgG1)
heavy: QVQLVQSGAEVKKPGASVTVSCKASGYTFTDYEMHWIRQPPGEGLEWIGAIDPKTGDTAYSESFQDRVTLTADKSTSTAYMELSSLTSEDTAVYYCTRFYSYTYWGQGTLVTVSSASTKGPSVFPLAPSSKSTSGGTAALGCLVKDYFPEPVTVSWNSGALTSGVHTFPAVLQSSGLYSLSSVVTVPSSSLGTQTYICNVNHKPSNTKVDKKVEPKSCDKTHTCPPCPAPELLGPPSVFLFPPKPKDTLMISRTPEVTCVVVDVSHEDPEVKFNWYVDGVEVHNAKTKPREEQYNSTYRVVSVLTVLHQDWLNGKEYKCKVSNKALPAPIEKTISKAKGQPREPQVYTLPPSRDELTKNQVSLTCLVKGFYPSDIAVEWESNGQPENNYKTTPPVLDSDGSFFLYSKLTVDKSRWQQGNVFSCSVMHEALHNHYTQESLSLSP
light: B1 light
notes: copies: 2 + 2
B14: GpH7-B3 variant P238E/GpL16-k0 (antibody, human IgG1)
heavy: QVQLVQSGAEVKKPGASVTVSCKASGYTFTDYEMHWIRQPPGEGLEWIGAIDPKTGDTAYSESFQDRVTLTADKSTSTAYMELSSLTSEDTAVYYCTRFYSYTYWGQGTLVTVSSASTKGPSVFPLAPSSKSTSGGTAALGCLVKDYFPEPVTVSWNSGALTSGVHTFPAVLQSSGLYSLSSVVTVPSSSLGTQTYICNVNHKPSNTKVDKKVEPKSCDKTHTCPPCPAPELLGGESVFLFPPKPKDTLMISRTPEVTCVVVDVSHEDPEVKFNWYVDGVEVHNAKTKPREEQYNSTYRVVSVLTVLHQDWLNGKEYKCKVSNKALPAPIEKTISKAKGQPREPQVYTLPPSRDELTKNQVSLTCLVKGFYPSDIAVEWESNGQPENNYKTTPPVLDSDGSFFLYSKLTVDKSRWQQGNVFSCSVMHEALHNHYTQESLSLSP
light: B1 light
notes: copies: 2 + 2
B15: GpH7-B3 variant S239W/GpL16-k0 (antibody, human IgG1)
heavy: not shown
light: B1 light
notes: copies: 2 + 2
B16: GpH7-B3 variant D265M/GpL16-k0 (antibody, human IgG1)
heavy: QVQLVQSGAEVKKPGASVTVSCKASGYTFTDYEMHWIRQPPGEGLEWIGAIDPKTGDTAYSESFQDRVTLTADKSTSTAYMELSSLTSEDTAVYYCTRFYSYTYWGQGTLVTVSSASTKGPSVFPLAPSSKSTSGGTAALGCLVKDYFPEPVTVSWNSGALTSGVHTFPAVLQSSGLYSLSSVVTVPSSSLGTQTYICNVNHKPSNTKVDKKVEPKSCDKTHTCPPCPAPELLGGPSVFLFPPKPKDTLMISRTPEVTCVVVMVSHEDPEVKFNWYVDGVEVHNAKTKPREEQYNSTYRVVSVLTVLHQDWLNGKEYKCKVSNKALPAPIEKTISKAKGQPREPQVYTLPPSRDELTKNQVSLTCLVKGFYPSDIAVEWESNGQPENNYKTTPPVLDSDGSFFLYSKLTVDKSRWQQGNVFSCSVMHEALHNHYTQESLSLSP
light: B1 light
notes: copies: 2 + 2
B17: GpH7-B3 variant G237A/GpL16-k0 (antibody, human IgG1)
heavy: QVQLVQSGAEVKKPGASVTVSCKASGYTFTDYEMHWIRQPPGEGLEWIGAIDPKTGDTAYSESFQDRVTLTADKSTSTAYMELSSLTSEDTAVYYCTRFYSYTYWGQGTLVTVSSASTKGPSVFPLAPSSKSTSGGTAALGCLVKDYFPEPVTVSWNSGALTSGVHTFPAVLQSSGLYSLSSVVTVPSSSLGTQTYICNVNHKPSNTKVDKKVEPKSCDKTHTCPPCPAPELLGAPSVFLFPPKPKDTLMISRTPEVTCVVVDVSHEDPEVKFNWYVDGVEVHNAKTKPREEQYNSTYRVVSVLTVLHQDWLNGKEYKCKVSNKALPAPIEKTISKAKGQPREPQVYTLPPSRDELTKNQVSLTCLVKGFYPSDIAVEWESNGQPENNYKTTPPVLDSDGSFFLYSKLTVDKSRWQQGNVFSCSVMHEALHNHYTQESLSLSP
light: B1 light
notes: copies: 2 + 2
B18: GpH7-B3 variant V266F/GpL16-k0 (antibody, human IgG1)
heavy: not shown
light: B1 light
notes: copies: 2 + 2
B19: GpH7-B3 variant E269I/GpL16-k0 (antibody, human IgG1)
heavy: not shown
light: B1 light
notes: copies: 2 + 2
B20: GpH7-B3 variant S239R/GpL16-k0 (antibody, human IgG1)
heavy: not shown
light: B1 light
notes: copies: 2 + 2
B21: GpH7-B3 variant D265H/GpL16-k0 (antibody, human IgG1)
heavy: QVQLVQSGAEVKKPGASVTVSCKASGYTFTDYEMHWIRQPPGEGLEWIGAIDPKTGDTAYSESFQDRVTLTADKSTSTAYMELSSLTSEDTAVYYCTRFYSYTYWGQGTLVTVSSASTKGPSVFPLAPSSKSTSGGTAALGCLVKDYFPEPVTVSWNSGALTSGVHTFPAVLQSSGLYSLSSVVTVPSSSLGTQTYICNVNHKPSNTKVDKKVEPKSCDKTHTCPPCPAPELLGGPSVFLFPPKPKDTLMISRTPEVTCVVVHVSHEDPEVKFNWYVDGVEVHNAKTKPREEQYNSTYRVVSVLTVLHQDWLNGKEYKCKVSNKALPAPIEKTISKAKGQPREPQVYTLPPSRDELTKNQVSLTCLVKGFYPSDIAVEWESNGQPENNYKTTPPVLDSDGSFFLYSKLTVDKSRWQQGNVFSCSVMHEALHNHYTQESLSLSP
light: B1 light
notes: copies: 2 + 2
B22: IgG1-F1376 (antibody)
heavy: QVQLQESGPGLVKPSETLSLTCAVSGHSISHDHAWSWVRQPPGEGLEWIGFISYSGITNYNPSLQGRVTISRDNSKNTLYLQMNSLRAEDTAVYYCARSLARTTAMDYWGEGTLVTVSSASTKGPSVFPLAPSSKSTSGGTAALGCLVKDYFPEPVTVSWNSGALTSGVHTFPAVLQSSGLYSLSSVVTVPSSSLGTQTYICNVNHKPSNTKVDKKVEPKSCDKTHTCPPCPAPELRGGPKVFLFPPKPKDTLYITREPEVTCVVVDVSHEDPEVKFNWYVDGVEVHNAKTKPREEQYNSTYRVVSVLTVLHQDWLNGKEYKCKVSNKALPAPIEKTISKAKGQPREPQVYTLPPSRDELTKNQVSLTCLVKGFYPSDIAVEWESNGQPENNYKTTPPVLDSDGSFFLYSKLTVDKSRWQQGNVFSCSVMHEALHYHVTQKSLSLSP
light: not shown
notes: EU numbering; copies: 2 + 2
B23: IgG1-F1377 (antibody)
heavy: B22 heavy with T256S
light: not shown
notes: EU numbering; copies: 2 + 2
B24: IgG1-F1378 (antibody)
heavy: B22 heavy with T256S, E258T, V438T
light: not shown
notes: EU numbering; copies: 2 + 2
B25: IgG1-F1379 (antibody)
heavy: B22 heavy with T256S, E258T, V438F
light: not shown
notes: EU numbering; copies: 2 + 2

Residue numbers refer to the chain shown, from its start. In names and notes the source's numbering stands.

The target in the first test is T4, human FcγRIa (human, UniProt P12314 16-292, limits assumed).
T4 construct: also called FcgRIa; FcγRI (CD64)
Put plainly: SPR (Biacore).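 Note: antibody variants captured on sensor chip, Fcγ receptor flowed over at 25 °C, bound receptor normalized to amount of captured antibody, expressed relative to reference antibody set as 100.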 A general note: In SPR one partner is held on a chip, and binding of the other changes the refractive index at the surface.
Experimental: (§1) Interaction between each modified antibody and Fcγ receptor prepared in the manner described above was analyzed using the BIACORE™ T100 surface plasmon resonance system (GE Healthcare), BIACORE™ T200 surface plasmon resonance system (GE Healthcare), BIACORE™ A100 surface plasmon resonance system or BIACORE™ 4000 surface plasmon resonance system. HBS-EP+ (GE Healthcare) was used for the running buffer, and measurements were carried out at 25° C. The chips used were chips in which antigen peptides, Protein A (Thermo Scientific), Protein A/G (Thermo Scientific) or Protein L (ACTIGEN® protein (Alltech or BioVision) were immobilized on the Series S Sensor Chip CMS (GE Healthcare) or Series S Sensor Chip CM4 (GE Healthcare) by amine coupling, or chips in which preliminarily biotinylated antigen peptides were allowed to interact and then immobilized on the Series S Sensor Chip SA (certified) (GE Healthcare). The target antibodies were captured on these sensor chips, Fcγ receptor diluted with the running buffer was allowed to interact, followed by measurement of the amount of bound antibody. The amounts bound were compared between antibodies. However, since the amount of Fcγ receptor bound depends on the amount of captured antibody, the values used for comparison were first corrected by dividing the amount of Fcγ receptor bound by the captured amount of each antibody. Through reaction with 10 mM glycine-HCl at pH 1.5, the sensor chips were regenerated by washing off antibody captured on the sensor chips and used repeatedly.
(§2) Binding strength was evaluated according to the following method based on the results of analyzing the interaction with each FcγR. […] That value was then further multiplied by 100, and the resulting value was used as an indicator of relative binding activity to each FcγR.
Turning to B1, the relative binding activity was 71 % of GpH7-B3/GpL16-k0.
The same measure, in the same setting: the value for B2 was 96 % of GpH7-B3/GpL16-k0; that for B3 was 8 % of GpH7-B3/GpL16-k0; that for B4 was 7 % of GpH7-B3/GpL16-k0.
Same read-out and setting: the value for B5 was 2 % of GpH7-B3/GpL16-k0; that for B6 was 28 % of GpH7-B3/GpL16-k0.
In the case of B7, the relative binding activity is 13 % of GpH7-B3/GpL16-k0.
For B8, the relative binding activity is 2 % of GpH7-B3/GpL16-k0.
Still for that read-out and setting: for B9 the value was 95 % of GpH7-B3/GpL16-k0; for B10, 11 % of GpH7-B3/GpL16-k0; for B11, 36 % of GpH7-B3/GpL16-k0.
B12: the relative binding activity is 7 % of GpH7-B3/GpL16-k0.
The same measure, in the same setting: the value for B13 was 3 % of GpH7-B3/GpL16-k0; that for B14 was 95 % of GpH7-B3/GpL16-k0.
The same measure, in the same setting: for B15 the value was 69 % of GpH7-B3/GpL16-k0.
Regarding B16, the relative binding activity is 17 % of GpH7-B3/GpL16-k0.
As for B17, the relative binding activity is 45 % of GpH7-B3/GpL16-k0.
For the molecule B18, the relative binding activity is 80 % of GpH7-B3/GpL16-k0.
Same read-out and setting: for B19 the value was 94 % of GpH7-B3/GpL16-k0; for B20, 52 % of GpH7-B3/GpL16-k0.
Consider B21, for which the relative binding activity was 59 % of GpH7-B3/GpL16-k0.

The next test deals with T1, human FcγRIIa(R). Put plainly: SPR (Biacore).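 Note: antibody variants captured on sensor chip, Fcγ receptor flowed over at 25 °C, bound receptor normalized to amount of captured antibody, expressed relative to reference antibody set as 100.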
Experimental: as §1, §2
For the molecule B1, the relative binding activity was 4 % of GpH7-B3/GpL16-k0.
Same read-out and setting: for B2 the value was 21 % of GpH7-B3/GpL16-k0.
With B3, the relative binding activity was -1 % of GpH7-B3/GpL16-k0.
On to B4, for which the relative binding activity was 77 % of GpH7-B3/GpL16-k0.
For the molecule B5, the relative binding activity is -1 % of GpH7-B3/GpL16-k0.
For the molecule B8, the relative binding activity is -1 % of GpH7-B3/GpL16-k0.
As for B9, the relative binding activity is 12 % of GpH7-B3/GpL16-k0.
Still for that read-out and setting: for B10 the value was 1 % of GpH7-B3/GpL16-k0; for B11, 3 % of GpH7-B3/GpL16-k0.
Same read-out and setting: for B12 the value was 0 % of GpH7-B3/GpL16-k0.
As for B14, the relative binding activity is 21 % of GpH7-B3/GpL16-k0.
B15: the relative binding activity was 19 % of GpH7-B3/GpL16-k0.
Still for that read-out and setting: the value for B16 was -1 % of GpH7-B3/GpL16-k0; that for B17 was 85 % of GpH7-B3/GpL16-k0.
Take B19: the relative binding activity was 16 % of GpH7-B3/GpL16-k0.
Same read-out and setting: for B21 the value was 26 % of GpH7-B3/GpL16-k0.

For another test, the target named is T2, human FcγRIIa(H). Put plainly: SPR (Biacore).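 Note: antibody variants captured on sensor chip, Fcγ receptor flowed over at 25 °C, bound receptor normalized to amount of captured antibody, expressed relative to reference antibody set as 100.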
Experimental: as §1, §2
As to B1, the relative binding activity was 22 % of GpH7-B3/GpL16-k0.
The same measure, in the same setting: the value for B2 was 30 % of GpH7-B3/GpL16-k0; that for B3 was 0 % of GpH7-B3/GpL16-k0.
The same measure, in the same setting: for B4 the value was 4 % of GpH7-B3/GpL16-k0.
On the same count and under the same terms, for B5 the value was 0 % of GpH7-B3/GpL16-k0; for B6, 11 % of GpH7-B3/GpL16-k0.
B7: the relative binding activity was 18 % of GpH7-B3/GpL16-k0.
On the same count and under the same terms, for B8 the value was 0 % of GpH7-B3/GpL16-k0.
Regarding B9, the relative binding activity is 24 % of GpH7-B3/GpL16-k0.
As for B10, the relative binding activity is 1 % of GpH7-B3/GpL16-k0.
B11: the relative binding activity was 5 % of GpH7-B3/GpL16-k0.
Still for that read-out and setting: the value for B12 was 0 % of GpH7-B3/GpL16-k0; that for B13 was 0 % of GpH7-B3/GpL16-k0.
Still for that read-out and setting: the value for B14 was 2 % of GpH7-B3/GpL16-k0; that for B16 was 0 % of GpH7-B3/GpL16-k0.
Still for that read-out and setting: the value for B19 was 32 % of GpH7-B3/GpL16-k0; that for B20 was 13 % of GpH7-B3/GpL16-k0.
B21: the relative binding activity is 18 % of GpH7-B3/GpL16-k0.

Another test addresses T3, human FcγRIIb. In words: SPR (Biacore).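 Note: antibody variants captured on sensor chip, Fcγ receptor flowed over at 25 °C, bound receptor normalized to amount of captured antibody, expressed relative to reference antibody set as 100.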
Experimental: as §1, §2
As to B1, the relative binding activity was 1 % of GpH7-B3/GpL16-k0.
Same read-out and setting: the value for B2 was 13 % of GpH7-B3/GpL16-k0.
For the molecule B3, the relative binding activity was 0 % of GpH7-B3/GpL16-k0.
The same measure, in the same setting: the value for B5 was -2 % of GpH7-B3/GpL16-k0; that for B6 was 10 % of GpH7-B3/GpL16-k0; that for B7 was 19 % of GpH7-B3/GpL16-k0.
For the molecule B8, the relative binding activity was -2 % of GpH7-B3/GpL16-k0.
As to B10, the relative binding activity is -1 % of GpH7-B3/GpL16-k0.
The same measure, in the same setting: for B11 the value was 1 % of GpH7-B3/GpL16-k0.
The same measure, in the same setting: the value for B12 was 0 % of GpH7-B3/GpL16-k0.
On the same count and under the same terms, the value for B13 was 5 % of GpH7-B3/GpL16-k0.
With B15, the relative binding activity is 17 % of GpH7-B3/GpL16-k0.
B16: the relative binding activity was -2 % of GpH7-B3/GpL16-k0.
As to B17, the relative binding activity was 49 % of GpH7-B3/GpL16-k0.
Same read-out and setting: the value for B18 was 88 % of GpH7-B3/GpL16-k0; that for B20 was 5 % of GpH7-B3/GpL16-k0; that for B21 was 11 % of GpH7-B3/GpL16-k0.

Another test deals with T5, human FcγRIIIa(F) (human, UniProt P08637 17-208, limits assumed).
T5 construct: also called FcgRIIIaF; allotype F158
Put plainly: SPR (Biacore).
Experimental: as §1, §2
B1: the relative binding activity was 11 % of GpH7-B3/GpL16-k0.
On the same count and under the same terms, the value for B3 was -2 % of GpH7-B3/GpL16-k0; that for B4 was 0 % of GpH7-B3/GpL16-k0; that for B5 was -1 % of GpH7-B3/GpL16-k0.
With B6, the relative binding activity is 11 % of GpH7-B3/GpL16-k0.
On the same count and under the same terms, the value for B7 was 1 % of GpH7-B3/GpL16-k0; that for B8 was -2 % of GpH7-B3/GpL16-k0.
Still for that read-out and setting: the value for B9 was 12 % of GpH7-B3/GpL16-k0; that for B10 was -1 % of GpH7-B3/GpL16-k0; that for B11 was -1 % of GpH7-B3/GpL16-k0.
Same read-out and setting: the value for B12 was -1 % of GpH7-B3/GpL16-k0; that for B13 was 0 % of GpH7-B3/GpL16-k0; that for B14 was 1 % of GpH7-B3/GpL16-k0.
On to B15, for which the relative binding activity is 19 % of GpH7-B3/GpL16-k0.
Consider B16, for which the relative binding activity is -1 % of GpH7-B3/GpL16-k0.
Regarding B17, the relative binding activity was 4 % of GpH7-B3/GpL16-k0.
On to B18, for which the relative binding activity is 2 % of GpH7-B3/GpL16-k0.
As for B19, the relative binding activity was 10 % of GpH7-B3/GpL16-k0.
With B20, the relative binding activity was 1 % of GpH7-B3/GpL16-k0.
On to B21, for which the relative binding activity is 0 % of GpH7-B3/GpL16-k0.

A further test has as its target T6, soluble human FcRn complexed with β2-microglobulin (human, UniProt P61769 21-119, limits assumed).
T6 construct: also called hFcRn
Put plainly: Biacore SPR, pH 7.0.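 Note: test antibodies captured on a Protein L chip with human FcRn flowed over as analyte, KD obtained as the ratio of dissociation to association rate constants.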
Usually Kd stands for the equilibrium constant for the complex coming apart. The low end stands for higher affinity, the high end for lower affinity. B22 gave an equilibrium dissociation constant (Kd) of 90.9 nM.
Molecule B23 displayed a dissociation constant Kd of 82.7 nM.
Still for that read-out and setting: for B24 the value was 361 nM; for B25, 285 nM.
